# Source: patent US20220153847A1 (Chugai, published 2022)
# B1: DQN0344xx//IC17 (bispecific antibody, human IgG1, kappa)
# heavy 1: QSLEESGGGLVKPGGTLTLTCTASGFSFSSSYWMCWVRQAPGKGLEWVACVYGGSDTTYYASWTKGRFTISKGSSTTVALQVTSLTAADTATYFCARDPLNYYYYGELNLWGPGTLVTVSSASTKGPSVFPLAPSSKSTSGGTAALGCLVKDYFPEPVTVSWNSGALTSGVHTFPAVLQSSGLYSLSSVVTVPSSSLGTQTYICNVNHKPSNTKVDKRVEPKSCDKTHTCPPCPAPELRRGPSVFLFPPKPKDTLMISRTPEVTCVVVDVSHEDPEVKFNWYVDGVEVHNAKTKPREEQYNSTYRVVSVLTVLHQDWLNGKEYKCKVSNKALPAPIEKTISKAKGQPREPQVYTLPPSREEMTKNQVSLTCLVKGFYPSDIAVEWESNGQPENNYKTTPPYLDSDGSFFLYSKLTVDKSRWQQGNVFSCSVMHEALHNHYTQESLSLSP
# light 1: AVVLTQTASPVSAAVGGTVTIRCQATENIYSGLAWYQQKPGQPPKVLIYYVSTLASGVPSRFKGSGSGTEYTLTISGVQCDDAATYYCQTYHDISNVTFGGGTKVEIKRTVAAPSVFIFPPSDEQLKSGTASVVCLLNNFYPREAKVQWKVDNALQSGNSQESVTEQDSKDCTYSLSSTLTLSKADYEKHKVYACEVTHQGLSSPVTKSFNRGEC
# heavy 2: QVQLQQSGPQLVRPGASVKISCKASGYSFTSYWMHWVNQRPGQGLEWIGMIDPSYSETRLNQKFKDKATLTVDKSSSTAYMQLSSPTSEDSAVYYCALYGNYFDYWGQGTTLTVSSASTKGPSVFPLAPSSKSTSGGTAALGCLVKDYFPEPVTVSWNSGALTSGVHTFPAVLQSSGLYSLSSVVTVPSSSLGTQTYICNVNHKPSNTKVDKRVEPKSCDKTHTCPPCPAPELRRGPSVFLFPPKPKDTLMISRTPEVTCVVVDVSHEDPEVKFNWYVDGVEVHNAKTKPREEQYNSTYRVVSVLTVLHQDWLNGKEYKCKVSNKALPAPIEKTISKAKGQPREPQVYTLPPSRKEMTKNQVSLTCLVKGFYPSDIAVEWESNGQPENNYKTTPPYLDSDGSFFLYSKLTVDKSRWQQGNVFSCSVMHEALHNHYTQKSLSLSP
# light 2: DIQMTQSSSSFSVSLGDRVTITCKASEDIYNRLAWYQQKPGNAPRLLISGATSLETGVPSRFSGSGSGKDYTLSITSLQTEDVATYYCQQYWSTPYTFGGGTKLEVKRTVAAPSVFIFPPSDEQLKSGTASVVCLLNNFYPREAKVQWKVDNALQSGNSQESVTEQDSKDSTYSLSSTLTLSKADYEKHKVYACEVTHQGLSSPVTKSFNRGEC
# Key:
# [1] = biological target: T1, HLA-DQ2.5 on HLA-DQ2.5-positive PBMC B cells (human, UniProt P01909 24-254; P01920 33-261); assay: FACS, PBMC B cells; IC17=0%, DQN0139bb//IC17=100%
# T1 construct: whole, on cells; also called HLA-DQ2.5+ PBMC B cell
# T1 MHC II alpha: not shown
# T1 MHC II beta: not shown
# [2] = biological target: T2, HLA-DQ2.5/avenin 1 peptide complex on Ba/F3 cells (human); assay: FACS, Ba/F3 cells; IC17=0%, DQN0139bb//IC17=100%;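 note: flow cytometry binding of anti-HLA-DQ antibodies at 5 µg/mL, incubated 30 min at room temperature with Ba/F3 lines presenting HLA-DQ/peptide complexes; antibody tested at 5 microgram/mL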
# T2 construct: whole, on cells; also called Ba/F3-HLA-DQ2.5/avenin 1
# Excerpt: (§1) The binding of anti-HLA-DQ antibodies to Ba/F3-HLA-DQ2.5, Ba/F3-HLA-DQ2.2, Ba/F3-HLA-DQ7.5, Ba/F3-HLA-DQ8, Ba/F3-HLA-DQ5.1, Ba/F3-HLA-DQ6.3, Ba/F3-HLA-DQ7.3, Ba/F3-HLA-DR, Ba/F3-HLA-DP, Ba/F3-HLA-DQ2.5/CLIP, Ba/F3-HLA-DQ2.5/HBV, Ba/F3-HLA-DQ2.5/Salmonella, Ba/F3-HLA-DQ2.5/TPO, Ba/F3-HLA-DQ2.5/M. bovis, Ba/F3-HLA-DQ2.5/alpha 1 gliadin, Ba/F3-HLA-DQ2.5/alpha 2 gliadin, Ba/F3-HLA-DQ2.5/gamma 1 gliadin, Ba/F3-HLA-DQ2.5/gamma 2 gliadin, Ba/F3-HLA-DQ2.5/omega 1 gliadin, Ba/F3-HLA-DQ2.5/omega 2 gliadin, Ba/F3-HLA-DQ2.5/BC hordein, Ba/F3-HLA-DQ2.5/alpha 3 gliadin, Ba/F3-HLA-DQ2.5/alpha 1b gliadin, Ba/F3-HLA-DQ2.5/gamma 4b gliadin, Ba/F3-HLA-DQ2.5/avenin 1, Ba/F3-HLA-DQ2.5/avenin 2, Ba/F3-HLA-DQ2.5/avenin 3, Ba/F3-HLA-DQ2.5/hordein 1, Ba/F3-HLA-DQ2.5/hordein 2, Ba/F3-HLA-DQ2.5/secalin 1, Ba/F3-HLA-DQ2.5/secalin 2, Ba/F3-HLA-DQ2.5/14mer 1, Ba/F3-HLA-DQ2.5/33mer gliadin, Ba/F3-HLA-DQ2.5/26mer gliadin, was tested. 5 microgram/mL of each of the anti-HLA-DQ antibodies was incubated with each cell line for 30 minutes at room temperature and washed with FACS buffer (2% FBS, 2 mM EDTA in PBS).
# [3] = biological target: T3, HLA-DQ2.5/alpha 3 gliadin peptide complex on Ba/F3 cells (human); assay: FACS, Ba/F3 cells; IC17=0%, DQN0139bb//IC17=100%;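 note: flow cytometry binding of anti-HLA-DQ antibodies at 5 µg/mL, incubated 30 min at room temperature with Ba/F3 lines presenting HLA-DQ/peptide complexes; antibody tested at 5 microgram/mL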
# T3 construct: whole, on cells; also called Ba/F3-HLA-DQ2.5/alpha 3 gliadin; HLA-DQ2.5/a3 gliadin
# Excerpt: as §1
# [4] = biological target: T4, HLA-DQ7.5 on Ba/F3 cells (human, UniProt P01909 24-216; P01920 33-230, limits assumed); assay: FACS, Ba/F3 cells; IC17=0%, DQN0139bb//IC17=100%;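 note: flow cytometry binding of anti-HLA-DQ antibodies at 5 µg/mL, incubated 30 min at room temperature with Ba/F3 lines presenting HLA-DQ/peptide complexes; antibody tested at 5 microgram/mL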
# T4 construct: whole, on cells; also called Ba/F3-HLA-DQ7.5
# T4 sequence (P01920 33-230 limits assumed, chain 2 of 4, other chains not shown): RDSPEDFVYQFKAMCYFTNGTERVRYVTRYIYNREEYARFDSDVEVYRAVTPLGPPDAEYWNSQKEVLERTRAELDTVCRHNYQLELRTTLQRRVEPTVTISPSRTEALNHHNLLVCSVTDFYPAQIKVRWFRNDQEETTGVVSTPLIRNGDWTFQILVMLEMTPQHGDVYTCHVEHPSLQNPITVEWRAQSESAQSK
# Excerpt: as §1
# [5] = biological target: T5, HLA-DQ2.5/secalin 2 peptide complex on Ba/F3 cells (human); assay: FACS, Ba/F3 cells; IC17=0%, DQN0139bb//IC17=100%;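 note: flow cytometry binding of anti-HLA-DQ antibodies at 5 µg/mL, incubated 30 min at room temperature with Ba/F3 lines presenting HLA-DQ/peptide complexes; antibody tested at 5 microgram/mL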
# T5 construct: whole, on cells; also called Ba/F3-HLA-DQ2.5/secalin 2
# Excerpt: as §1
# [6] = biological target: T6, HLA-DQ8 on Ba/F3 cells (human, UniProt P01909 24-216; P01920 33-230, limits assumed); assay: FACS, Ba/F3 cells; IC17=0%, DQN0139bb//IC17=100%
# T6 construct: whole, on cells; also called Ba/F3-HLA-DQ8
# Excerpt: as §1
# T6 MHC II alpha: not shown
# T6 MHC II beta: not shown
# [7] = biological target: T7, HLA-DQ2.5/gamma 1 gliadin peptide complex on Ba/F3 cells (human); assay: FACS, Ba/F3 cells; IC17=0%, DQN0139bb//IC17=100%
# T7 construct: whole, on cells; also called Ba/F3-HLA-DQ2.5/gamma 1 gliadin; HLA-DQ2.5/g1 gliadin
# Excerpt: as §1
# [8] = biological target: T8, HLA-DQ2.5/avenin 3 peptide complex on Ba/F3 cells (human); assay: FACS, Ba/F3 cells; IC17=0%, DQN0139bb//IC17=100%
# T8 construct: whole, on cells; also called Ba/F3-HLA-DQ2.5/avenin 3
# Excerpt: as §1
# [9] = biological target: T9, HLA-DQ2.5/Thyroperoxidase peptide complex on Ba/F3 cells (human); assay: FACS, Ba/F3 cells; IC17=0%, DQN0139bb//IC17=100%
# T9 construct: whole, on cells; also called Ba/F3-HLA-DQ2.5/TPO; HLA-DQ2.5/TPO
# Excerpt: as §1
# [10] = biological target: T10, HLA-DQ2.5/26mer gliadin peptide complex on Ba/F3 cells (human); assay: FACS, Ba/F3 cells; IC17=0%, DQN0139bb//IC17=100%
# T10 construct: whole, on cells; also called Ba/F3-HLA-DQ2.5/26mer gliadin
# Excerpt: as §1
# [11] = biological target: T11, HLA-DQ2.5/omega 2 gliadin peptide complex on Ba/F3 cells (human); assay: FACS, Ba/F3 cells; IC17=0%, DQN0139bb//IC17=100%
# T11 construct: whole, on cells; also called Ba/F3-HLA-DQ2.5/omega 2 gliadin; HLA-DQ2.5/w2 gliadin
# Excerpt: as §1
# [12] = biological target: T12, HLA-DQ2.5/alpha 1b gliadin peptide complex on Ba/F3 cells (human); assay: FACS, Ba/F3 cells; IC17=0%, DQN0139bb//IC17=100%
# T12 construct: whole, on cells; also called Ba/F3-HLA-DQ2.5/alpha 1b gliadin; HLA-DQ2.5/a1b gliadin
# Excerpt: as §1
# [13] = biological target: T13, HLA-DQ2.5/14mer 1 peptide complex on Ba/F3 cells (human); assay: FACS, Ba/F3 cells; IC17=0%, DQN0139bb//IC17=100%
# T13 construct: whole, on cells; also called Ba/F3-HLA-DQ2.5/14mer 1
# Excerpt: as §1
# [14] = biological target: T14, HLA-DQ2.5/secalin 1 peptide complex on Ba/F3 cells (human); assay: FACS, Ba/F3 cells; IC17=0%, DQN0139bb//IC17=100%
# T14 construct: whole, on cells; also called Ba/F3-HLA-DQ2.5/secalin 1
# Excerpt: as §1
# [15] = biological target: T15, HLA-DQ2.5/hordein 1 peptide complex on Ba/F3 cells (human); assay: FACS, Ba/F3 cells; IC17=0%, DQN0139bb//IC17=100%
# T15 construct: whole, on cells; also called Ba/F3-HLA-DQ2.5/hordein 1
# Excerpt: as §1
# [16] = biological target: T16, HLA-DQ2.5/avenin 2 peptide complex on Ba/F3 cells (human); assay: FACS, Ba/F3 cells; IC17=0%, DQN0139bb//IC17=100%
# T16 construct: whole, on cells; also called Ba/F3-HLA-DQ2.5/avenin 2
# Excerpt: as §1
# [17] = biological target: T17, HLA-DQ2.5/omega 1 gliadin peptide complex on Ba/F3 cells (human); assay: FACS, Ba/F3 cells; IC17=0%, DQN0139bb//IC17=100%
# T17 construct: whole, on cells; also called Ba/F3-HLA-DQ2.5/omega 1 gliadin; HLA-DQ2.5/w1 gliadin
# Excerpt: as §1
# [18] = biological target: T18, HLA-DQ2.5/33mer gliadin peptide complex on Ba/F3 cells (human); assay: FACS, Ba/F3 cells; IC17=0%, DQN0139bb//IC17=100%
# T18 construct: whole, on cells; also called Ba/F3-HLA-DQ2.5/33mer gliadin
# Excerpt: as §1
# [19] = biological target: T19, HLA-DQ2.5/alpha 1 gliadin peptide complex on Ba/F3 cells (human); assay: FACS, Ba/F3 cells; IC17=0%, DQN0139bb//IC17=100%
# T19 construct: whole, on cells; also called Ba/F3-HLA-DQ2.5/alpha 1 gliadin; HLA-DQ2.5/a1 gliadin
# Excerpt: as §1
# [20] = biological target: T20, HLA-DQ2.5/CLIP peptide complex on Ba/F3 cells (human); assay: FACS, Ba/F3 cells; IC17=0%, DQN0139bb//IC17=100%
# T20 construct: whole, on cells; also called Ba/F3-HLA-DQ2.5/CLIP
# T20 sequence (P04233 96-124, chain 2 of 2, other chains not shown): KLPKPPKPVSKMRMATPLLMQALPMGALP
# Excerpt: as §1
# [21] = biological target: T21, HLA-DQ2.5/hordein 2 peptide complex on Ba/F3 cells (human); assay: FACS, Ba/F3 cells; IC17=0%, DQN0139bb//IC17=100%
# T21 construct: whole, on cells; also called Ba/F3-HLA-DQ2.5/hordein 2
# Excerpt: as §1
# [22] = biological target: T22, HLA-DQ2.5/BC hordein peptide complex on Ba/F3 cells (human); assay: FACS, Ba/F3 cells; IC17=0%, DQN0139bb//IC17=100%
# T22 construct: whole, on cells; also called Ba/F3-HLA-DQ2.5/BC hordein
# Excerpt: as §1
# [23] = biological target: T23, HLA-DQ2.5/alpha 2 gliadin peptide complex on Ba/F3 cells (human); assay: FACS, Ba/F3 cells; IC17=0%, DQN0139bb//IC17=100%
# T23 construct: whole, on cells; also called Ba/F3-HLA-DQ2.5/alpha 2 gliadin; HLA-DQ2.5/a2 gliadin
# Excerpt: as §1
# [24] = biological target: T24, HLA-DQ2.5/gamma 2 gliadin peptide complex on Ba/F3 cells (human); assay: FACS, Ba/F3 cells; IC17=0%, DQN0139bb//IC17=100%
# T24 construct: whole, on cells; also called Ba/F3-HLA-DQ2.5/gamma 2 gliadin; HLA-DQ2.5/g2 gliadin
# Excerpt: as §1
# [25] = biological target: HLA-DQ2.5/33mer gliadin peptide on IHW9088 cells (human); assay: cell-based or functional assay
binder,measurement,setting,value
B1,% MFI,[1],0%
same,% MFI,[2],20.7%
same,% MFI,[3],14.6%
same,% MFI,[4],0%
same,% MFI,[5],26.5%
same,% MFI,[6],0%
same,% MFI,[7],0.2%
same,% MFI,[8],17.8%
same,% MFI,[9],0%
same,% MFI,[10],0.2%
same,% MFI,[11],0.2%
same,% MFI,[12],72.2%
same,% MFI,[13],0%
same,% MFI,[14],31.6%
same,% MFI,[15],11.9%
same,% MFI,[16],16.8%
same,% MFI,[17],37.5%
same,% MFI,[18],99.1%
same,% MFI,[19],60.1%
same,% MFI,[20],0%
same,% MFI,[21],0%
same,% MFI,[22],0%
same,% MFI,[23],90.4%
same,% MFI,[24],0.2%
same,IC50 (read off the curve),[25],~0.2 microgram/mL
